This assay deals with T1, PhnI-his (E. coli, UniProt P16687 1-354).
T1 sequence (looked up): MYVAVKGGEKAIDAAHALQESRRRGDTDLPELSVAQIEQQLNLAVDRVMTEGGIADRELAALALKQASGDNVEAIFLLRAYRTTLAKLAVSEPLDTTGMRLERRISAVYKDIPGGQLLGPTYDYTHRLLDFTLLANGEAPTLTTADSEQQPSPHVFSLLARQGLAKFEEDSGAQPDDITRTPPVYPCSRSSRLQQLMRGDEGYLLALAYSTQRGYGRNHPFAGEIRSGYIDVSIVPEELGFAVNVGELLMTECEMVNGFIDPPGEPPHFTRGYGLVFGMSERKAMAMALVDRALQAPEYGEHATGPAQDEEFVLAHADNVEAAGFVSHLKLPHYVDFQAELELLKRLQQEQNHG
As to the kind of experiment: N-terminal Edman sequencing of the purified complex.

B1: PhnG (natural protein, E. coli, UniProt P16685 1-150, looked up)
chain: MHADTATRQHWMSVLAHSQPAELAARLNALNITADYEVIRAAETGLVQIQARMGGTGERFFAGDATLTRAAVRLTDGTLGYSWVQGRDKQHAERCALIDALMQQSRHFQNLSETLIAPLDADRMARIAARQAEVNASRVDFFTMVRGDNA
As for B1, the “stoichiometry N” value came out at 0.9 ± 0.1 PhnG per PhnI.

As a reminder, the stoichiometry N is a count of units in the complex or per binding partner.

Source of the values: publication PMC4480679 (Biochemistry, 2015).
